Experimental data as given in patent US20210063414A1, “METHODS FOR PREVENTING AND/OR TREATING BONE LOSS CONDITIONS BY MODULATING IRISIN” (Dana-Farber Cancer Institute, Inc., priority 2018, published 2021).

Assays:
Test in all cases: Crosslinking/co-immunoprecipitation/mass spectrometry (TMT quantitative proteomics) to identify irisin receptors
Format in all cases: binding
[1] = molecular target: T1, MLO-Y4 cell surface proteins (Mus musculus, UniProt Q8R1J9); details: co-precipitated protein Tor2a (TOR2A_MOUSE)
T1 construct: endogenous in cells; host or cells: MLO-Y4
Summary of the method: (§1)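 Relative protein abundance came from 6-plex TMT MS3 quantitation on an Orbitrap Fusion Lumos, after in-gel trypsin digestion of Coomassie-stained SDS-PAGE lanes. Input was a Ni-NTA pulldown (250 mM imidazole elution) of lysates from murine MLO-Y4 cells. These cells were treated on ice with His-tagged irisin or adipsin (10 nM, 20 min) in serum-free medium, then crosslinked with 1.5 mM DTSSP for 30 min.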

[2] = molecular target: T2, MLO-Y4 cell surface proteins (Mus musculus, UniProt Q8K273); details: TMT ratio, Mmgt1 Membrane magnesium transporter 1
T2 construct: endogenous in cells; host or cells: MLO-Y4
T2 sequence (Q8K273 1-131): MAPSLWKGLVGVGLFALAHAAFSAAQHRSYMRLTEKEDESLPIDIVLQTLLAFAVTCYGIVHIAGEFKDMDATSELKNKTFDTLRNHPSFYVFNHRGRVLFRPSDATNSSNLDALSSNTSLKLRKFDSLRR
Summary of the method: as §1

[3] = molecular target: T3, MLO-Y4 cell surface proteins (Mus musculus, UniProt Q9D3P1); details: co-precipitated protein Tchhl1 (TCHL1_MOUSE)
T3 construct: endogenous in cells; host or cells: MLO-Y4
T3 sequence (Q9D3P1 1-638): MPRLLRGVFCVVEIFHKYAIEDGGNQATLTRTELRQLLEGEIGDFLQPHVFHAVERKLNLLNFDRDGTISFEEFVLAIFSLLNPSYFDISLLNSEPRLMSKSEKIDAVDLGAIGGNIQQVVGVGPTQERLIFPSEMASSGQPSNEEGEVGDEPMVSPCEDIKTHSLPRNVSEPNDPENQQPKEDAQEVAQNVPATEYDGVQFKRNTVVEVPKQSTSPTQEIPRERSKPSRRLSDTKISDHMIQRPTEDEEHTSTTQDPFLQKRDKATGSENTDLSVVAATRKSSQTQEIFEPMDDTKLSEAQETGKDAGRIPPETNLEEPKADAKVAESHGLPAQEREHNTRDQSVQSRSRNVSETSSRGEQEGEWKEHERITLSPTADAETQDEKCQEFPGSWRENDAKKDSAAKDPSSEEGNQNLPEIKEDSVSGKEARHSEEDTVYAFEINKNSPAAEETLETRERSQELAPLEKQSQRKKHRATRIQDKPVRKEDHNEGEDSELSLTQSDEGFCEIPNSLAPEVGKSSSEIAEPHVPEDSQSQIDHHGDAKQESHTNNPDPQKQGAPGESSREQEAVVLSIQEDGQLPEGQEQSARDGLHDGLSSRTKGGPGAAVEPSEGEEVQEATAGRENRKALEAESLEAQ
Summary of the method: as §1

[4] = molecular target: T4, MLO-Y4 cell surface proteins (Mus musculus, UniProt Q9CXD6); details: co-precipitated protein Mcur1 (MCUR1_MOUSE)
T4 construct: endogenous in cells; host or cells: MLO-Y4
T4 sequence (Q9CXD6 1-340): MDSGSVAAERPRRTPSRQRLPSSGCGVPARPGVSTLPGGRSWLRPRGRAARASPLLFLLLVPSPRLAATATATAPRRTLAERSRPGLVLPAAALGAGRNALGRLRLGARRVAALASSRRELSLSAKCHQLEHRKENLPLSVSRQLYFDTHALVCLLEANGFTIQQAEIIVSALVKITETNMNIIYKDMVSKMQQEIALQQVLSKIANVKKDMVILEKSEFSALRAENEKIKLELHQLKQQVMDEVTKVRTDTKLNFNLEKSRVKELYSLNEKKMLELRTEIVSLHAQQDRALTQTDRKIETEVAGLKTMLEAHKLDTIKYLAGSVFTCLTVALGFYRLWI
Summary of the method: as §1

T1 sequence (Q8R1J9 27-321): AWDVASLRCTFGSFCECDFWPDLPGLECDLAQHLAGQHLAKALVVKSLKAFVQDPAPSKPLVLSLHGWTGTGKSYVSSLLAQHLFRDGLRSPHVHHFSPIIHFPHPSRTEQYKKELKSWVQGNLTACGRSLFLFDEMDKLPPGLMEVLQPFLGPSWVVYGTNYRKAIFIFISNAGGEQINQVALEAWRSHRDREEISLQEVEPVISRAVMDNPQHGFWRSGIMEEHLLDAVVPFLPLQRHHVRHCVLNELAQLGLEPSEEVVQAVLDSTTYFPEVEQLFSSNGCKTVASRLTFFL

B1: irisin: secreted cleaved form of FNDC5; recombinant human/mouse irisin with C-terminal his tag produced in HEK293 cells (protein)
chain: DSPSAPVNVTVRHLKANSAVVSWDVLEDEVVIGFAISQQKKDVRMLRFIQEVNTTTRSCALWDLEEDTEYIVHVQAISIQGQSPASEPVLFKTPREAEKMASKNKDEVTMKE
modifications: left off: small tags and cut ends
notes: secreted cleaved form of FNDC5; recombinant human/mouse irisin with C-terminal his tag produced in HEK293 cells
- TMT signal-to-noise ratio [1]: 338.383
- irisin/adipsin TMT signal-to-noise ratio [1]: 0.486
- irsin/adipsin [2]: 2.94
- TMT signal-to-noise ratio [3]: 23.5307
- irisin/adipsin TMT signal-to-noise ratio [3]: 0.013
- TMT signal-to-noise ratio [4]: 951.207
- irisin/adipsin TMT signal-to-noise ratio [4]: 0.583
